Tests used:
[1] = substrate: Nc1ccc(C(=O)NCC(=O)O)cc1; assay: TP_TRANSPORTER: uptake in membrane vesicles from MRP2-expressing HEK cells; assay type: functional, cell membranes, HEK293, Membrane vesicle
[2] = substrate: Nc1ccc(C(=O)NCC(=O)O)cc1; assay: TP_TRANSPORTER: uptake in membrane vesicle from MRP1-expressing HeLa cells; assay type: functional, cell membranes

B1: ATP-binding cassette sub-family C member 2 (Homo sapiens) (protein)
chain: MLEKFCNSTFWNSSFLDSPEADLPLCFEQTVLVWIPLGYLWLLAPWQLLHVYKSRTKRSSTTKLYLAKQVFVGFLLILAAIELALVLTEDSGQATVPAVRYTNPSLYLGTWLLVLLIQYSRQWCVQKNSWFLSLFWILSILCGTFQFQTLIRTLLQGDNSNLAYSCLFFISYGFQILILIFSAFSENNESSNNPSSIASFLSSITYSWYDSIILKGYKRPLTLEDVWEVDEEMKTKTLVSKFETHMKRELQKARRALQRRQEKSSQQNSGARLPGLNKNQSQSQDALVLEDVEKKKKKSGTKKDVPKSWLMKALFKTFYMVLLKSFLLKLVNDIFTFVSPQLLKLLISFASDRDTYLWIGYLCAILLFTAALIQSFCLQCYFQLCFKLGVKVRTAIMASVYKKALTLSNLARKEYTVGETVNLMSVDAQKLMDVTNFMHMLWSSVLQIVLSIFFLWRELGPSVLAGVGVMVLVIPINAILSTKSKTIQVKNMKNKDKRLKIMNEILSGIKILKYFAWEPSFRDQVQNLRKKELKNLLAFSQLQCVVIFVFQLTPVLVSVVTFSVYVLVDSNNILDAQKAFTSITLFNILRFPLSMLPMMISSMLQASVSTERLEKYLGGDDLDTSAIRHDCNFDKAMQFSEASFTWEHDSEATVRDVNLDIMAGQLVAVIGPVGSGKSSLISAMLGEMENVHGHITIKGTTAYVPQQSWIQNGTIKDNILFGTEFNEKRYQQVLEACALLPDLEMLPGGDLAEIGEKGINLSGGQKQRISLARATYQNLDIYLLDDPLSAVDAHVGKHIFNKVLGPNGLLKGKTRLLVTHSMHFLPQVDEIVVLGNGTIVEKGSYSALLAKKGEFAKNLKTFLRHTGPEEEATVHDGSEEEDDDYGLISSVEEIPEDAASITMRRENSFRRTLSRSSRSNGRHLKSLRNSLKTRNVNSLKEDEELVKGQKLIKKEFIETGKVKFSIYLEYLQAIGLFSIFFIILAFVMNSVAFIGSNLWLSAWTSDSKIFNSTDYPASQRDMRVGVYGALGLAQGIFVFIAHFWSAFGFVHASNILHKQLLNNILRAPMRFFDTTPTGRIVNRFAGDISTVDDTLPQSLRSWITCFLGIISTLVMICMATPVFTIIVIPLGIIYVSVQMFYVSTSRQLRRLDSVTRSPIYSHFSETVSGLPVIRAFEHQQRFLKHNEVRIDTNQKCVFSWITSNRWLAIRLELVGNLTVFFSALMMVIYRDTLSGDTVGFVLSNALNITQTLNWLVRMTSEIETNIVAVERITEYTKVENEAPWVTDKRPPPDWPSKGKIQFNNYQVRYRPELDLVLRGITCDIGSMEKIGVVGRTGAGKSSLTNCLFRILEAAGGQIIIDGVDIASIGLHDLREKLTIIPQDPILFSGSLRMNLDPFNNYSDEEIWKALELAHLKSFVASLQLGLSHEVTEAGGNLSIGQRQLLCLGRALLRKSKILVLDEATAAVDLETDNLIQTTIQNEFAHCTVITIAHRLHTIMDSDKVMVLDNGKIIECGSPEELLQIPGPFYFMAKEAGIENVNSTKF
For B1, the Km [1] was 880 µM.

B2: Multidrug resistance-associated protein 1 (Homo sapiens) (protein)
chain: MALRGFCSADGSDPLWDWNVTWNTSNPDFTKCFQNTVLVWVPCFYLWACFPFYFLYLSRHDRGYIQMTPLNKTKTALGFLLWIVCWADLFYSFWERSRGIFLAPVFLVSPTLLGITMLLATFLIQLERRKGVQSSGIMLTFWLVALVCALAILRSKIMTALKEDAQVDLFRDITFYVYFSLLLIQLVLSCFSDRSPLFSETIHDPNPCPESSASFLSRITFWWITGLIVRGYRQPLEGSDLWSLNKEDTSEQVVPVLVKNWKKECAKTRKQPVKVVYSSKDPAQPKESSKVDANEEVEALIVKSPQKEWNPSLFKVLYKTFGPYFLMSFFFKAIHDLMMFSGPQILKLLIKFVNDTKAPDWQGYFYTVLLFVTACLQTLVLHQYFHICFVSGMRIKTAVIGAVYRKALVITNSARKSSTVGEIVNLMSVDAQRFMDLATYINMIWSAPLQVILALYLLWLNLGPSVLAGVAVMVLMVPVNAVMAMKTKTYQVAHMKSKDNRIKLMNEILNGIKVLKLYAWELAFKDKVLAIRQEELKVLKKSAYLSAVGTFTWVCTPFLVALCTFAVYVTIDENNILDAQTAFVSLALFNILRFPLNILPMVISSIVQASVSLKRLRIFLSHEELEPDSIERRPVKDGGGTNSITVRNATFTWARSDPPTLNGITFSIPEGALVAVVGQVGCGKSSLLSALLAEMDKVEGHVAIKGSVAYVPQQAWIQNDSLRENILFGCQLEEPYYRSVIQACALLPDLEILPSGDRTEIGEKGVNLSGGQKQRVSLARAVYSNADIYLFDDPLSAVDAHVGKHIFENVIGPKGMLKNKTRILVTHSMSYLPQVDVIIVMSGGKISEMGSYQELLARDGAFAEFLRTYASTEQEQDAEENGVTGVSGPGKEAKQMENGMLVTDSAGKQLQRQLSSSSSYSGDISRHHNSTAELQKAEAKKEETWKLMEADKAQTGQVKLSVYWDYMKAIGLFISFLSIFLFMCNHVSALASNYWLSLWTDDPIVNGTQEHTKVRLSVYGALGISQGIAVFGYSMAVSIGGILASRCLHVDLLHSILRSPMSFFERTPSGNLVNRFSKELDTVDSMIPEVIKMFMGSLFNVIGACIVILLATPIAAIIIPPLGLIYFFVQRFYVASSRQLKRLESVSRSPVYSHFNETLLGVSVIRAFEEQERFIHQSDLKVDENQKAYYPSIVANRWLAVRLECVGNCIVLFAALFAVISRHSLSAGLVGLSVSYSLQVTTYLNWLVRMSSEMETNIVAVERLKEYSETEKEAPWQIQETAPPSSWPQVGRVEFRNYCLRYREDLDFVLRHINVTINGGEKVGIVGRTGAGKSSLTLGLFRINESAEGEIIIDGINIAKIGLHDLRFKITIIPQDPVLFSGSLRMNLDPFSQYSDEEVWTSLELAHLKDFVSALPDKLDHECAEGGENLSVGQRQLVCLARALLRKTKILVLDEATAAVDLETDDLIQSTIRTQFEDCTVLTIAHRLNTIMDYTRVIVLDKGEIQEYGAPSDLLQQRGLFYSMAKDAGLV
Work on B2 yielded a Km [2] of 372 µM.

From ChEMBL document CHEMBL2074311, “ATP-dependent para-aminohippurate transport by apical multidrug resistance protein MRP2” (Kidney Int, 2000)
